# Patent US20030185819A1 (Biogen, published 2003)
# Key:
# [1] = target: T1, VLA-4 (integrin alpha4 beta1) on the human B cell line Ramos (human, UniProt P13612 34-1032; P05556 21-798); assay: adhesion assay: inhibition of Ramos cell binding to immobilized rsVCAM1; molar value as printed
# T1 construct: whole, on cells; also called α4β1; VLA-4-expressing cells
# Method: (§1) Recombinant soluble VCAM1 was prepared and purified essentially as described by Lobb et al., 1991a. Soluble VCAM is diluted to 10 μg/ml in 0.05 M NaHCO₃, (15 mM NaHCO₃, 35 mM Na₂CO₃) pH 9.2. Then 50 μl/well is added into a Linbro Titertek polystyrene 96 well plate, flat bottom, Flow Labs catalog #76-231-05. The plate is incubated at 4° C. overnight.
# (§2) For antibody blocking studies, 100 μl/well of murine HP1/2 MAb (anti-VLA-4) typically at 10 μg/ml in RPMI, 2% FBS are added to the rsVCAM1 coated plates and incubated for 30 minutes at room temperature prior to cell binding as described above. MAb HP1/2 (anti-VLA-4) or any recombinant humanized anti-VLA-4 antibody prepared as described herein must be preincubated with labelled cells for 30 minutes at room temperature prior to the cell binding. Concentrations of the antibodies preincubated will vary, but generally concentrations were in the range of about 1 μg/ml.
# (§3) In these adhesion assays, murine HP1/2 inhibits Ramos cell binding completely at about 40 ng/ml, and half maximally at about 15 ng/ml ([…]). The results of adhesion assays as represented by the calculated half-maximal binding constants using humanized recombinant anti-VLA-4 antibodies made according to the present invention are shown in Table III. The number-(n) of experiments performed for each value is indicated for the recombinant humanized antibodies.
# [2] = target: T1, VLA-4 (integrin alpha4 beta1) on the …; assay: FACS, half-maximal binding to Ramos cells
# Method: (§4) Briefly, 25 μl cells (4×10^6/ml in FACS buffer (PBS 2% FBS, 0.1% NaN₃) on ice are added to 5 μl of 5 μg/ml FITC or phycoerythrin (PE) conjugated antibody in FACS buffer, and incubated in V-bottomed microtiter wells on ice for 30 minutes. To the wells, 125 μl of FACS buffer is added, the plates are centrifuged at 350×g for 5 minutes, and the supernatant is shaken off. To each well is added 125 μl FACS buffer, then the cells are transferred to 12×75 mm Falcon polystyrene tubes and resuspended to a final volume of 250 μl in FACS buffer. The mixture is analyzed on a Becton Dickinson FACStar. The results of the FACS assays as represented by the calculated half-maximal binding […] Using humanized recombinant anti-VLA-4 antibodies made according to the present invention are shown in Table III and the number (n) of experiments performed for each value is indicated for the humanized antibodies. […] Murine HP1/2 binds half-maximally to Ramos cells at 15 ng/ml. The AS/SVMDY humanized antibody binds half-maximally to Ramos cells at 12 ng/ml. Thus, the two assays (i.e., adhesion and FACS assays) show an excellent correlation for the murine antibody and the humanized AS/SVMDY antibody.
# [3] = target: T1, VLA-4 (integrin alpha4 beta1) on the …; assay: adhesion assay: inhibition of Ramos cell binding to immobilized rsVCAM1
# Method: as §1, §2
# (§5) The potency of recombinant Stage 0, Stage 1, Stage 2 and Stage 3 antibodies having the VK1 (DQL) light chain that had been purified from stably transfected YB2/0 cell lines was measured in the adhesion assay, as shown in Table III.
# [4] = target: T1, VLA-4 (integrin alpha4 beta1) on the …; assay: adhesion assay: inhibition of Ramos cell binding to immobilized rsVCAM1 (n = 14)
# Method: as §1, §2, §3
# [5] = target: T1, VLA-4 (integrin alpha4 beta1) on the …; assay: FACS, half-maximal binding to Ramos cells (n = 6)
# Method: as §4
# [6] = target: T1, VLA-4 (integrin alpha4 beta1) on the …; assay: potency assay of Example 7; which assay is not stated
# [7] = target: T1, VLA-4 (integrin alpha4 beta1) on the …; assay: FACS, half-maximal binding to Ramos cells (n = 3)
# Method: as §4
# [8] = target: T1, VLA-4 (integrin alpha4 beta1) on the …; assay: adhesion assay: inhibition of Ramos cell binding to immobilized rsVCAM1 (n = 4)
# Method: as §1, §2, §5
# [9] = target: T1, VLA-4 (integrin alpha4 beta1) on the …; assay: adhesion assay: inhibition of Ramos cell binding to immobilized rsVCAM1 (n = 2)
# Method: as §1, §2
# [10] = target: T1, VLA-4 (integrin alpha4 beta1) on the …; assay: FACS, half-maximal binding to Ramos cells (n = 1)
# Method: as §4
# [11] = target: T1, VLA-4 (integrin alpha4 beta1) on the …; assay: combination of adhesion and FACS assays (n = 3)
# Method: as §1, §2
# as §4, with “Thus, the two assays (i.e., adhesion and FACS assays) show an excellent correlation for the murine antibody and the humanized AS/SVMDY antibody.” left out
# [12] = target: T1, VLA-4 (integrin alpha4 beta1) on the …; assay: FACS, half-maximal binding to Ramos cells (n = 2)
# Method: as §4
# [13] = target: T1, VLA-4 (integrin alpha4 beta1) on the …; assay: adhesion assay: inhibition of Ramos cell binding to immobilized rsVCAM1 (n = 3)
# Method: as §1, §2, §5
# T1 sequence (P13612 34-1032, chain 1 of 2): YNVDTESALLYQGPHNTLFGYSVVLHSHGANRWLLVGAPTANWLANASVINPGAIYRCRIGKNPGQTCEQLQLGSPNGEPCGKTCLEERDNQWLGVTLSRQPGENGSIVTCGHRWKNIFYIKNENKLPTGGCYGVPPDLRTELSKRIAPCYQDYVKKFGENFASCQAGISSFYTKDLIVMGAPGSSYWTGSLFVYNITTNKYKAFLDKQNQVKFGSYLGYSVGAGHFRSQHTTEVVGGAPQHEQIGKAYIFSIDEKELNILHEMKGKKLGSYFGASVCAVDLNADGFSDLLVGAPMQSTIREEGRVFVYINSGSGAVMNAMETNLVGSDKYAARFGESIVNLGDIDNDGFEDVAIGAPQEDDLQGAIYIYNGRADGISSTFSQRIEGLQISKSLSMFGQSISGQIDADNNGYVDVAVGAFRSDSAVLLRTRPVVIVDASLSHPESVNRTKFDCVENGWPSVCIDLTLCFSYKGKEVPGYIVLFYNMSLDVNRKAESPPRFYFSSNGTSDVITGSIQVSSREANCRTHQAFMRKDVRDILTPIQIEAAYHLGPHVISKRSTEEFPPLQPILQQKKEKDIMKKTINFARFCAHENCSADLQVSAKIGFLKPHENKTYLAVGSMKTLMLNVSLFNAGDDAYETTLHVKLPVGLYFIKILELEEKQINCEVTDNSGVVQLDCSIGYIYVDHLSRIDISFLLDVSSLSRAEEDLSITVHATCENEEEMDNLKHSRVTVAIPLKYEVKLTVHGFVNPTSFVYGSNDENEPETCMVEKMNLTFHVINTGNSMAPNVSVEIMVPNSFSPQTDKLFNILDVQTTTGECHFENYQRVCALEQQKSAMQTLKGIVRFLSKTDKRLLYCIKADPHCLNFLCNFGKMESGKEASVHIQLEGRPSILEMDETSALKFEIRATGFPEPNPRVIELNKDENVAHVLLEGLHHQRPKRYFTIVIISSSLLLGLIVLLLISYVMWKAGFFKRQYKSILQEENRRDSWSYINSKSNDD
# T1 sequence (P05556 21-798, chain 2 of 2): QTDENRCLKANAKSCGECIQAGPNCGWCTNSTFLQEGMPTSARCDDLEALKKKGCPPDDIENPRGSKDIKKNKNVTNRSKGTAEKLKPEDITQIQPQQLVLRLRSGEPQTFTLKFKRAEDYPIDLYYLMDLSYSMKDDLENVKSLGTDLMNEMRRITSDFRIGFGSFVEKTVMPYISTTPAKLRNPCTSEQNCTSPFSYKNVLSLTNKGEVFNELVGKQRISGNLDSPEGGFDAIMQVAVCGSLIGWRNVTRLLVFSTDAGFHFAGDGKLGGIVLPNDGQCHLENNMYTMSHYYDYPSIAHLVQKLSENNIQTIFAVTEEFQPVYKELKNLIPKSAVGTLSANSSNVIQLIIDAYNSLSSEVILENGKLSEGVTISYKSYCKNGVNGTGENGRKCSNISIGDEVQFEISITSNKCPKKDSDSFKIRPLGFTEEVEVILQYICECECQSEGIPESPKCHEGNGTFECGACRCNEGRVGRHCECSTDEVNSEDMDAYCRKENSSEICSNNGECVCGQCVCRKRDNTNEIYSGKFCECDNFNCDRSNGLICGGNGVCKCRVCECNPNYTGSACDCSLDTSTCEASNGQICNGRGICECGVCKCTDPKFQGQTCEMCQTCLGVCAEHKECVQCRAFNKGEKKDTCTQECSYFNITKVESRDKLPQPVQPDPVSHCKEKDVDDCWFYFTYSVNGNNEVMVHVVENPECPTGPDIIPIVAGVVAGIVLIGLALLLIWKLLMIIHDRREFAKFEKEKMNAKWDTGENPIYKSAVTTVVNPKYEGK
binder,measurement,setting,value
"murine HP1/2 monoclonal antibody (antibody, mouse IgG1, V domains shown, The first eight residues of VH and the first four of VK in the listing are dictated by the PCR primers; also called MAb HP1/2 (anti-VLA-4); HP1/2 MAb) VH: VKLQQSGAELVKPGASVKLFCTASGFNIKDTYMHWVKQRPQQGLEWIGRIDPASGDTKYDPKFQVKATITADTSSNTAWLQLSSLTSEDTAVYYCADGMWVSTGYALDFWGQGTTVTVSS VL: SIVMTQTPKFLLVSAGDRVTITCKASQSVTNDVAWYQQKPGQSPKLLIYYASNRYTGVPDRFTGSGYGTDFTFTISTVQAEDLAVYFCQQDYSSPYTFGGGTKLEI",IC50,[1],~10 µM
same,EC50,[2],0.015 µg/mL
same,IC50,[3],0.015 µg/mL
"Stage 2 (Ser mutant) humanized anti-VLA-4 antibody with VK1 (DQL) light chain (antibody, V domains shown, Human IgG1 or IgG4 / kappa; also called Sage 2 (Ser mutant); S mutant) VH: QVQLQESGPGLVRPSQTLSLTCTVSGFNIKDTYMHWVRQPPGRGLEWIGRIDPASGDTKYDPKFQVRVTMLVDTSSNQFSLRLSSVTAADTAVYYCADGMWVSTGYALDFWGQGTTVTVSS VL: DIQLTQSPSSLSASVGDRVTITCKASQSVTNDVAWYQQKPGKAPKLLIYYASNRYTGVPSRFSGSGSGTDFTFTISSLQPEDIATYYCQQDYSSPYTFGQGTKVEIKR",IC50,[4],0.056 µg/mL
same,EC50,[5],0.047 µg/mL
same,fold lower potency than murine HP1/2,[6],~4 fold
"Stage 0-B humanized anti-VLA-4 antibody with VK1 (DQL) light chain (antibody, V domains shown, Human IgG1 or IgG4 heavy and human kappa constant regions; also called STAGE O-B; Stage 0 (Humanized heavy chain)) VH: QVQLQESGPGLVRPSQTLSLTCTVSGFTFSDTYMHWVRQPPGRGLEWIGRIDPASGDTKYDPKFQVRVTMLVDTSKNQFSLRLSSVTAADTAVYYCADGMWVSTGYALDFWGQGTTVTVSS VL: DIQLTQSPSSLSASVGDRVTITCKASQSVTNDVAWYQQKPGKAPKLLIYYASNRYTGVPSRFSGSGSGTDFTFTISSLQPEDIATYYCQQDYSSPYTFGQGTKVEIK",IC50,[3],> 1 µg/mL
"humanized heavy chain of the Stage 2 construct (the Ser mutant) with murine light chain (antibody, V domains shown, also called Stage 2 heavy chain / murine light chain) VH: QVQLQESGPGLVRPSQTLSLTCTVSGFNIKDTYMHWVRQPPGRGLEWIGRIDPASGDTKYDPKFQVRVTMLVDTSSNQFSLRLSSVTAADTAVYYCADGMWVSTGYALDFWGQGTTVTVSS VL: SIVMTQTPKFLLVSAGDRVTITCKASQSVTNDVAWYQQKPGQSPKLLIYYASNRYTGVPDRFTGSGYGTDFTFTISTVQAEDLAVYFCQQDYSSPYTFGGGTKLEI",fold lower potency than murine HP1/2,[6],~2.5 fold
"STAW/SVMDY humanized anti-VLA-4 antibody (antibody, V domains shown, Human IgG1 or IgG4 / kappa; also called STAW with VK2 (SVMDY) light chain) VH: QVQLQESGPGLVRPSQTLSLTCTVSGFNIKDTYMHWVRQPPGRGLEWIGRIDPASGDTKYDPKFQVRVTMLVDTSSNTAWLRLSSVTAADTAVYYCADGMWVSTGYALDFWGQGTTVTVSS VL: SIVMTQSPSSLSASVGDRVTITCKASQSVTNDVAWYQQKPGKAPKLLIYYASNRYTGVPDRFSGSGYGTDFTFTISSLQPEDIATYYCQQDYSSPYTFGQGTKVEIKR",EC50,[7],0.035 µg/mL
same,IC50,[8],0.025 µg/mL
"Stage 3 KAITAS humanized anti-VLA-4 antibody with VK1 (DQL) light chain (antibody, V domains shown, Human IgG1 or IgG4 / kappa; also called VH-KAITAS) VH: QVQLQESGPGLVRPSQTLSLTCTVSGFNIKDTYMHWVRQPPGRGLEWIGRIDPASGDTKYDPKFQVKATITADTSSNQFSLRLSSVTAADTAVYYCADGMWVSTGYALDFWGQGTTVTVSS VL: DIQLTQSPSSLSASVGDRVTITCKASQSVTNDVAWYQQKPGKAPKLLIYYASNRYTGVPSRFSGSGSGTDFTFTISSLQPEDIATYYCQQDYSSPYTFGQGTKVEIKR",IC50,[9],0.085 µg/mL
same,EC50,[10],0.1 µg/mL
same,half-maximal binding constant (adhesion and FACS combined),[11],90 ng/mL
"AS/SVMDY humanized anti-VLA-4 antibody (antibody, V domains shown, Human IgG1 or IgG4 / kappa; also called AS mutant heavy chain combined with the improved light chain (SVMDY); antibody produced by ATCC CRL 11175) VH: QVQLQESGPGLVRPSQTLSLTCTASGFNIKDTYMHWVRQPPGRGLEWIGRIDPASGDTKYDPKFQVRVTMLVDTSSNQFSLRLSSVTAADTAVYYCADGMWVSTGYALDFWGQGTTVTVSS VL: SIVMTQSPSSLSASVGDRVTITCKASQSVTNDVAWYQQKPGKAPKLLIYYASNRYTGVPDRFSGSGYGTDFTFTISSLQPEDIATYYCQQDYSSPYTFGQGTKVEIKR",IC50,[9],0.012 µg/mL
same,EC50,[12],0.012 µg/mL
"Stage 3 SSE humanized anti-VLA-4 antibody with VK1 (DQL) light chain (antibody, V domains shown, Human IgG1 or IgG4 / kappa; also called VH-SSE) VH: QVQLQESGPGLVRPSQTLSLTCTVSGFNIKDTYMHWVRQPPGRGLEWIGRIDPASGDTKYDPKFQVRVTMLVDTSSNQFSLRLSSVTSEDTAVYYCADGMWVSTGYALDFWGQGTTVTVSS VL: DIQLTQSPSSLSASVGDRVTITCKASQSVTNDVAWYQQKPGKAPKLLIYYASNRYTGVPSRFSGSGSGTDFTFTISSLQPEDIATYYCQQDYSSPYTFGQGTKVEIKR",IC50,[9],0.1 µg/mL
same,EC50,[10],0.04 µg/mL
same,half-maximal binding constant (adhesion and FACS combined),[11],80 ng/mL
"Stage 0-C humanized anti-VLA-4 antibody with VK1 (DQL) light chain (antibody, V domains shown, Generated from Stage 0-A, which is Stage 1 with D94R; Kabat position 94 is linear position 98 of the humanized VH entries (CDR3 = 99-110); Human IgG1 or IgG4 / kappa; also called STAGE O-C; Stage 0 (Humanized heavy chain)) VH: QVQLQESGPGLVRPSQTLSLTCTVSGFTFSDTYMHWVRQPPGRGLEWIGRIDPASGDTKYDPKFQVRVTMLVDTSKNQFSLRLSSVTAADTAVYYCARGMWVSTGYALDFWGQGTTVTVSS VL: DIQLTQSPSSLSASVGDRVTITCKASQSVTNDVAWYQQKPGKAPKLLIYYASNRYTGVPSRFSGSGSGTDFTFTISSLQPEDIATYYCQQDYSSPYTFGQGTKVEIK",IC50,[3],> 1 µg/mL
"Stage 3 AS humanized anti-VLA-4 antibody with VK1 (DQL) light chain (antibody, V domains shown, Human IgG1 or IgG4 / kappa; also called VH-AS) VH: QVQLQESGPGLVRPSQTLSLTCTASGFNIKDTYMHWVRQPPGRGLEWIGRIDPASGDTKYDPKFQVRVTMLVDTSSNQFSLRLSSVTAADTAVYYCADGMWVSTGYALDFWGQGTTVTVSS VL: DIQLTQSPSSLSASVGDRVTITCKASQSVTNDVAWYQQKPGKAPKLLIYYASNRYTGVPSRFSGSGSGTDFTFTISSLQPEDIATYYCQQDYSSPYTFGQGTKVEIKR",IC50,[9],0.028 µg/mL
same,EC50,[12],0.014 µg/mL
"Stage 3 STAW humanized anti-VLA-4 antibody with VK1 (DQL) light chain (antibody, V domains shown, Human IgG1 or IgG4 / kappa; also called VH-STAW) VH: QVQLQESGPGLVRPSQTLSLTCTVSGFNIKDTYMHWVRQPPGRGLEWIGRIDPASGDTKYDPKFQVRVTMLVDTSSNTAWLRLSSVTAADTAVYYCADGMWVSTGYALDFWGQGTTVTVSS VL: DIQLTQSPSSLSASVGDRVTITCKASQSVTNDVAWYQQKPGKAPKLLIYYASNRYTGVPSRFSGSGSGTDFTFTISSLQPEDIATYYCQQDYSSPYTFGQGTKVEIKR",IC50,[13],0.03 µg/mL
same,EC50,[7],0.033 µg/mL
"Stage 3 KRS humanized anti-VLA-4 antibody with VK1 (DQL) light chain (antibody, V domains shown, Human IgG1 or IgG4 / kappa; also called VH-KRS) VH: QVQLQESGPGLVRPSQTLSLTCTVSGFNIKDTYMHWVKQRPGRGLEWIGRIDPASGDTKYDPKFQVRVTMLVDTSSNQFSLRLSSVTAADTAVYYCADGMWVSTGYALDFWGQGTTVTVSS VL: DIQLTQSPSSLSASVGDRVTITCKASQSVTNDVAWYQQKPGKAPKLLIYYASNRYTGVPSRFSGSGSGTDFTFTISSLQPEDIATYYCQQDYSSPYTFGQGTKVEIKR",IC50,[9],0.05 µg/mL
same,EC50,[10],0.07 µg/mL
same,half-maximal binding constant (adhesion and FACS combined),[11],57 ng/mL
